Reference: patent US20090215686A1 (published 2009)
Residue numbers refer to the chain shown, from its start. In names and notes the source's numbering stands. Each block holds one binder with its values, some of them ahead of it.

Columns and labels:
[1] = target: the molecule itself; test: crystal structure of mouse NK1
Method: Data were collected with a MAR 225 CCD detector at 5-ID (DND-CAT) of the Advance Photon Source (APS) located at Argonne National Laboratory. Crystals were flash frozen in liquid nitrogen after a quick wash in cryoprotectant solution containing 50 mM ammonium sulfate, 29% PEG 4000 or 1000 (w/w) (human or mouse NK1 respectively), 100 mM Tris-HCl pH 8.0, 0.5 or 0 mM βOG, 100 mM NaCl, and 15% ethylene glycol. Data was integrated and scaled with HKL2000 (Otwinowski and Minor, 1997). The human NK1 crystallized in space group P21, a=49.40 Å, b=51.81 Å, c=73.17 Å, and β=107.87°, and the mouse NK1 in P63 with a=b=86.49 Å, c=104.45 Å. The structure was solved by molecular replacement using the PDB coordinates 1NK1. Molecular replacement and model refinement were performed with CNS, where twin fraction was incorporated for the refinement for the mouse structure (Brunger et al., 1998). Manual model building was done with the program 0 (Jones et al., 1991).
To investigate the molecular mechanism by which NK1 induces Met dimerization, the crystal structure of mouse NK1 at a 2.4 Å resolution and a high resolution structure of human NK1 (1.8 Å) were determined for structural comparison.

[2] = target: T1, Met extracellular domain fragment (residues 25-567, sema domain and cysteine-rich domain) with C-terminal … (UniProt P08581 25-307; P08581 308-567); test: cell-based or functional assay
[3] = target: T1, Met extracellular domain fragment …; test: AlphaScreen competition of unlabeled ligand against biotin-NK1 binding to 6his-Met, 1 uM heparin
Method: (§1) The binding of NK1 to Met was determined by AlphaScreen assays using a hexahistidine detection kit from Perkin-Elmer. The experiment was performed using 10 nM biotin-NK1 and 6his-Met in the presence of 5 μg/ml donor and acceptor beads in a buffer containing 50 mM MOPS, pH7.4, 50 mM NaF, 0.05 mM CHAPS, and 0.1 mg/ml bovine serum albumin. Competition experiments were performed with 0.01 to 2.5 μM untagged ligand in the presence of 1 μM heparin and IC₅₀ values for NK1-Met interaction were determined from a nonlinear least square fit of the data. All experiments were duplicated or triplicated with standard errors typically less than 10% of the measurements. The Met dimerization assays were prepared using 40 nM of 6his-Met in the presence of 5 μg/ml nickel chelate donor and acceptor beads (Perkin-Elmer). The effect of Met ligands and heparin on Met dimerization was determined using 1 μM untagged ligand and 1 μM heparin.
To determine the binding affinities of the various NK1s for Met, competition experiments were performed using unlabeled NK1 proteins (FIG. 1E). […] These quantitative measurements thus establish that the affinities of the NK1 fragments are 10-50 folds weaker than the full-length HGF.

[4] = target: T1, Met extracellular domain fragment …; test: AlphaScreen competition against biotin-NK1 binding to 6his-Met, 1 uM heparin
Method: as §1
(§2) In contrast to the Met dimerization activity, the Met binding activity of these NK1 mutants was little affected.

[5] = target: T1, Met extracellular domain fragment …; test: AlphaScreen, biotinylated NK1 and histidine-tagged Met, with against without heparin
Method: as §1
(§3) To determine the functional activity of the above purified proteins, the direct interactions of Met with the biotinylated NK1 were measured using AlphaScreen assays as illustrated in FIG. 1C. […] When NK1 interacts with Met, excitation of a laser beam at 680 nm causes the donor beads to emit single oxygen molecules to activate the fluorophores in the acceptor beads and a light signal is detected at 520-620 nm. […]

[6] = target: T1, Met extracellular domain fragment …; test: AlphaScreen, biotinylated NK1 on streptavidin donor beads and 6his-Met on nickel chelate acceptor beads, with heparin (sheet prints '+ 1 pM HEPARIN') [d]
Method: as §1, §3

[7] = target: T1, Met extracellular domain fragment …; test: SPR, MET567 amine-coupled to a CM5 chip, ligand in flow
Text: (§4) Briefly, a CM5 chip was coated with MET567 by amine coupling chemistry. Ligand was then flowed through the cell at various concentrations to allow calculation of the dissociation equilibrium (KD).
(§5) NK1 versions of the above mutants were expressed in the yeast P. pastoris and purified to homogeneity.

[8] = target: T1, Met extracellular domain fragment …; test: SPR, MET567 amine-coupled to a CM5 chip, against wild type NK1
Text: as §4, §5

[9] = target: T1, Met extracellular domain fragment …; test: AlphaScreen competition: unlabeled NK1 mutant against biotinylated NK1 binding to 6his-Met, with heparin [b]
Method: as §1, §2

B1: mouse NK1 (ligand)
chain: YAEGQKKRRNTLHEFKKSAKTTLTKEDPLLKIKTKKVNSADECANRCIRNRGFTFTCKAFVFDKSRKRCYWYPFNSMSSGVKKGFGHEFDLYENKDYIRNCIIGKGGSYKGTVSITKSGIKCQPWNSMIPHEHSFLPSSYRGKDLQENYCRNPRGEEGGPWCFTSNPEVRYEVCDIPQCSEV
notes: also called mouse NK1 (E. coli)
binding result [1]: binds
Met dimerization signal (AlphaScreen), 1 µM NK1 without heparin; fold label over the bar [b] [2]: 1 fold
Met dimerization signal (AlphaScreen, 6his-Met on donor and acceptor beads), 1 µM NK1 with heparin; fold label over the bar [b] [2]: 46 fold
IC50 [3]: ~0.03 µM

B2: human HGF NK1 (residues 28-209), expressed in E. coli (ligand)
chain: YAEGQRKRRNTIHEFKKSAKTTLIKIDPALKIKTKKVNTADQCANRCTRNKGLPFTCKAFVFDKARKQCLWFPFNSMSSGVKKEFGHEFDLYENKDYIRNCIIGKGRSYKGTVSITKSGIKCQPWSSMIPHEHSFLPSSYRGKDLQENYCRNPRGEEGGPWCFTSNPEVRYEVCDIPQCSEV
notes: Expressed as a 6xHis-thioredoxin fusion; also called human NK1; wild type NK1
Met dimerization signal (AlphaScreen), 1 µM NK1 without heparin; fold label over the bar [b] [2]: 1 fold
Met dimerization signal (AlphaScreen, 6his-Met on donor and acceptor beads), 1 µM NK1 with heparin; fold label over the bar [b] [2]: 84 fold
IC50 [4]: 0.049 µM
IC50 [3]: ~0.1 µM
fold weaker affinity than mouse NK1 and the human R134G mutant [3]: 3 fold

B4: wild type NK1 expressed in P. pastoris (Example 7) (ligand)
chain: B2 chain
notes: Lietha 2001
Kd [7]: 0.183 µM

B6: human NK1 mutant K85A in the R134G background (ligand)
chain: B2 chain with K58A, R107G
notes: also called K85A NK1
IC50 [4]: 0.032 µM

B7: human NK1 mutant Y124A in the R134G background (ligand)
chain: B2 chain with Y97A, R107G
notes: also called Y124A NK1; Y124A mutant
IC50 [4]: 0.039 µM

B8: NK1 double mutant LF (D123A:Y124A), P. pastoris (ligand)
chain: B2 chain with D96A, Y97A
fold reduced MET binding affinity [8]: > 100 fold

B9: NK1 linker mutant LC (Y124A), P. pastoris (ligand)
chain: B2 chain with Y97A
Kd [7]: 0.149 µM

B10: NK1 double mutant LG (D123A:N127A), P. pastoris (ligand)
chain: B2 chain with D96A, N100A
fold reduced MET binding affinity [8]: > 100 fold

Other lines, results leading:

fold increase of the NK1-Met binding signal on addition of heparin [5]: > 200 fold
fold label beside the bar of NK1+MET with heparin (NK1-MET binding signal) [6]: 265 fold
B3: biotinylated human NK1 (ligand)
chain: B2 chain
modifications: biotin on the N-terminal biotin acceptor peptide (coexpressed BirA)
notes: Made from the His6-thioredoxin-NK1 vector, digested with thrombin, purified on monomeric avidin; also called biotin-NK1; biotinylated NK1; not shown: 20 amino acid biotin acceptor peptide from the pDW464 plasmid (Duffy et al., 1998)

Kd [7]: 0.083 µM
B5: NK1 linker mutant LE (N127A), P. pastoris (ligand)
chain: B2 chain with N100A

Kd [7]: 0.16 µM
B11: NK1 K1 mutant K1D (V140A:I142A), P. pastoris (ligand)
chain: B2 chain with V113A, I115A

IC50 [9]: 0.097 µM
B12: human NK1 mutant K85A/N127A in the R134G background (ligand)
chain: B2 chain with K58A, N100A, R107G
notes: made in the R134G background

IC50 [9]: 0.075 µM
B13: human NK1 mutant K85A/D123A in the R134G background (ligand)
chain: B2 chain with K58A, D96A, R107G
notes: made in the R134G background

Met dimerization signal (AlphaScreen), 1 µM NK1 without heparin; fold label over the bar [b] [2]: 1 fold
Met dimerization signal (AlphaScreen, 6his-Met on donor and acceptor beads), 1 µM NK1 with heparin; fold label over the bar [b] [2]: 68 fold
IC50 [3]: ~0.03 µM
B14: human NK1 mutant R134G (ligand)
chain: B2 chain with R107G
notes: Positions count on wild type NK1; also called human R134G mutant; human R134G NK1
